Experimental data published in the supplement of paper PMC11811203.

B1: THAP1; numbered along this chain (parent)
chain: MVQSCSAYGCKNRYDKDKPVSFHKFPLTRPSLCKEWEAAVRRKNFKPTKYSSICSEHFTPDCFKRECNNKLLKENAVPTIFLCTEPHDKKEDLLEPQEQLPPPPLPPPVSQVDAAIGLLMPPLQTPVNLSVFCDHNYTVEDTMHQRKRIHQLEQQVEKLRKKLKTAQQRCRRQERQLEKLKEVVHFQKEKDDVSERGYVILPNDYFEIVEVPA

Variants of: B1
Test: THAP1 transcriptional activity (GFP+/GFP- enrichment relative to wild-type constructs) (ratio to WT); higher = more THAP1 activity (PSMB5 reporter activation)
Conditions: with PSMB5 promoter-GFP reporter
In short: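 In duplicate, a lentivirus-delivered library with every residue from 2–213 of human THAP1 changed to all 20 amino acids was introduced at MOI ~0.3 into THAP1-knockout HEK-293T cells carrying endogenous PSMB5 tagged by mClover3 knock-in. Five days on, BFP+ cells were binned as GFP-dim or GFP-bright, and Illumina sequencing of genomic DNA amplicons counted each variant. Activity is the bright/dim read fold change, averaged over replicates and scaled to the mean of wild-type synonymous constructs.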

| Variant | THAP1 transcriptional activity |
| --- | --- |
| K18H | 0.202 |
| P60D | 0.532 |
| P60H | 0.509 |
| C170Q | 0.604 |
| C170S | 0.425 |
| E74S | 0.604 |
| E74P | 0.952 |
| D17C | 0.541 |
| D17P | 0.129 |
| E85S | 1.35 |
| E85C | 0.285 |
| V209M | 0.587 |
| Q145F | 0.716 |
| I208G | 0.803 |
| I208P | 0.675 |
| C5N | 0.208 |
| C5W | 0.202 |
| K90T | 1.43 |
| K90H | 0.995 |
| Q3K | 0.266 |
| Q3T | 0.534 |
| Q3N | 0.442 |
| Q3E | 0.155 |
| Q3W | 0.0989 |

| Variant | THAP1 transcriptional activity |
| --- | --- |
| L129A | 0.855 |
| L129Q | 0.659 |
| L129R | 1.86 |
| S6Y | 0.202 |
| S6F | 0.149 |
| S6M | 0.172 |
| R169S | 0.262 |
| K16A | 0.284 |
| N68K | 0.162 |
| N68I | 0.15 |
| Q99W | 0.514 |
| M120I | 1.14 |
| M120V | 1.24 |
| E56R | 0.389 |
| K73R | 0.622 |
| S31C | 0.206 |
| A114W | 0.317 |
| A114P | 1.29 |
| A114T | 1.27 |
| E178F | 0.529 |
| E178C | 0.927 |
| E178K | 1.59 |
| R171C | 0.256 |
| R171W | 0.258 |

| Variant | THAP1 transcriptional activity |
| --- | --- |
| I200W | 0.555 |
| I200M | 0.751 |
| D204G | 0.311 |
| D204S | 1.82 |
| Y198G | 0.536 |
| Y198N | 1.66 |
| P104R | 0.888 |
| P104Y | 0.704 |
| D192L | 1.22 |
| D192W | 1.13 |
| L27E | 0.0928 |
| K49R | 0.427 |
| R196S | 1.36 |
| V156A | 0.555 |
| P102W | 1.02 |
| K181T | 0.491 |
| K181C | 0.297 |
| K181S | 0.298 |
| C62E | 0.143 |
| K164W | 0.146 |
| K164R | 1.17 |
| L72F | 0.177 |
| L72I | 0.173 |
| P126L | 0.216 |

| Variant | THAP1 transcriptional activity |
| --- | --- |
| R172G | 0.234 |
| R172P | 0.241 |
| R172C | 0.157 |
| D191M | 1.04 |
| D191G | 1.05 |
| T79G | 0.301 |
| T79Y | 0.151 |
| T79K | 0.278 |
| P78Y | 0.488 |
| R41L | 0.233 |
| L105F | 0.955 |
| V20C | 0.141 |
| V20K | 0.0912 |
| V20E | 0.148 |
| T125R | 0.432 |
| V109Y | 0.304 |
| V109W | 0.467 |
| T28F | 0.194 |
| T28H | 0.391 |
| T28S | 3.39 |
| S110A | 0.787 |
| S110D | 0.782 |
| E140A | 1.46 |
| E140S | 1.48 |

| Variant | THAP1 transcriptional activity |
| --- | --- |
| Q155M | 0.674 |
| Q155D | 0.521 |
| V77D | 0.295 |
| V77S | 0.41 |
| V77R | 0.539 |
| V77A | 0.343 |
| Q187L | 0.681 |
| Q187P | 0.385 |
| Q187K | 0.719 |
| Q187N | 0.727 |
| P86L | 0.608 |
| P86M | 2.06 |
| T84R | 1.39 |
| T84W | 1.97 |
| E210L | 0.744 |
| F45A | 0.0632 |
| L119D | 0.609 |
| A115V | 0.454 |
| D15T | 0.679 |
| D15G | 0.411 |
| D15Y | 0.172 |
| P107G | 1.11 |
| P107Y | 1.42 |
| N136A | 0.208 |

| Variant | THAP1 transcriptional activity |
| --- | --- |
| L180C | 0.43 |
| E157C | 0.685 |
| E157M | 1.03 |
| D92V | 0.743 |
| D92Y | 0.942 |
| D92F | 0.641 |
| K46M | 0.442 |
| L152G | 0.249 |
| L152R | 0.306 |
| F81L | 0.224 |
| E98S | 1.19 |
| E98A | 1.51 |
| P202H | 1.12 |
| P108Q | 1.31 |
| P108T | 1.43 |
| Q176N | 0.518 |
| Q176S | 0.434 |
| L93G | 1.26 |
| T48Y | 0.0779 |
| L118Y | 0.871 |
| L118Q | 1.04 |
| S4V | 0.187 |
| S4G | 0.254 |
| K158F | 0.365 |

| Variant | THAP1 transcriptional activity |
| --- | --- |
| K158Q | 0.708 |
| S52G | 0.141 |
| S52P | 0.096 |
| K11N | 0.629 |
| K11H | 0.343 |
| C54M | 0.0985 |
| C54Y | 0.124 |
| C54G | 0.0692 |
| C54W | 0.107 |
| L201G | 0.813 |
| H87Y | 1.16 |
| H87T | 2.56 |
| P106R | 1.58 |
| P106K | 1.89 |
| P106M | 1.23 |
| P106L | 0.994 |
| R175P | 0.102 |
| V193I | 0.883 |
| R148Q | 0.425 |
| L71I | 1.07 |
| L71K | 0.533 |
| Y8P | 0.58 |
| Y8M | 0.368 |
| Y8D | 0.564 |

| Variant | THAP1 transcriptional activity |
| --- | --- |
| Y8V | 0.472 |
| K190H | 0.708 |
| F58S | 0.0937 |
| D141H | 0.514 |
| D141K | 0.927 |
| K64V | 0.215 |
| E35R | 0.909 |
| E35F | 0.223 |
| K70D | 0.0985 |
| K70N | 0.476 |
| K70V | 0.479 |
| K89I | 1.1 |
| K89P | 0.989 |
| A166D | 0.217 |
| A166P | 0.211 |
| A166Y | 0.705 |
| T142E | 1.23 |
| T142W | 0.266 |
| T142C | 0.803 |
| A76V | 0.435 |
| P96R | 1.45 |
| P96Q | 0.834 |
| T59N | 0.386 |
| T59R | 0.426 |

| Variant | THAP1 transcriptional activity |
| --- | --- |
| T59A | 0.736 |
| Y50G | 0.1 |
| Y50N | 0.389 |
| Y50P | 0.103 |
| Y137P | 0.117 |
| Y137Q | 0.186 |
| Y137A | 0.0848 |
| Y137N | 0.195 |
| Y137R | 0.214 |
| Y137K | 0.211 |
| K179T | 0.568 |
| K179A | 0.727 |
| K179G | 0.4 |
| F22E | 0.0853 |
| F22Q | 0.121 |
| F22D | 0.0567 |
| F22V | 0.115 |
| H150M | 1.09 |
| H150V | 1.1 |
| G117K | 0.256 |
| K24M | 0.118 |
| K24E | 0.138 |
| M143P | 1.2 |
| M143E | 0.983 |

| Variant | THAP1 transcriptional activity |
| --- | --- |
| M143Q | 0.669 |
| P121M | 0.288 |
| Q173A | 0.888 |
| P26Y | 0.208 |
| P26C | 0.106 |
| P26Q | 0.222 |
| A7G | 0.118 |
| A7H | 0.179 |
| C10L | 0.167 |
| C10R | 0.157 |
| C10D | 0.129 |
| L163E | 0.196 |
| E37R | 0.157 |
| E37T | 0.905 |
| E37L | 1.16 |
| Q97K | 0.467 |
| Q97D | 1.45 |
| Q97E | 1.24 |
| Y14S | 0.124 |
| Y14I | 0.119 |
| Y14E | 0.0718 |
| Y14Q | 0.142 |
| S21E | 0.0854 |
| S21L | 0.0984 |

| Variant | THAP1 transcriptional activity |
| --- | --- |
| S21T | 0.174 |
| S21W | 0.115 |
| K34W | 0.233 |
| K34H | 0.459 |
| K34I | 0.528 |
| H144D | 0.747 |
| H144S | 0.747 |
| K43W | 0.278 |
| K43S | 0.623 |
| K43T | 0.689 |
| Q167H | 0.575 |
| D113F | 0.135 |
| D113Q | 0.7 |
| H57K | 0.126 |
| Q151S | 0.793 |
| A213G | 0.677 |
| A213I | 0.974 |
| V112A | 0.615 |
| I149Y | 0.445 |
| I149H | 0.248 |
| I149W | 0.164 |
| C33Y | 0.162 |
| C33K | 0.22 |
| P122E | 0.885 |

| Variant | THAP1 transcriptional activity |
| --- | --- |
| H185I | 0.617 |
| H185R | 1.31 |
| L94A | 1.59 |
| L94G | 1.56 |
| L94M | 1.84 |
| Q124Y | 0.592 |
| S194E | 1.11 |
| T138C | 2.63 |
| T138E | 0.215 |
| N69E | 0.0951 |
| N69P | 0.092 |
| N69C | 0.181 |
| N69R | 0.216 |
| N69L | 0.301 |
| R65G | 0.424 |
| R65P | 0.671 |
| R65S | 0.735 |
| R42G | 0.0813 |
| R42A | 0.127 |
| R42T | 0.103 |
| V2F | 0.161 |
| V2L | 0.214 |
| V2P | 0.71 |
| I53D | 0.133 |

| Variant | THAP1 transcriptional activity |
| --- | --- |
| I53K | 0.0685 |
| I53S | 0.112 |
| N128G | 0.685 |
| N128E | 0.856 |
| E195F | 0.67 |
| E195L | 0.714 |
| D61T | 0.368 |
| P101L | 1.19 |
| E207V | 1.29 |
| E207N | 0.625 |
| E207C | 1.11 |
| E207Y | 1.02 |
| E153C | 0.315 |
| E153G | 0.412 |
| S130W | 0.276 |
| W36F | 0.221 |
| W36Y | 0.178 |
| R29C | 0.137 |
| R29M | 0.162 |
| R29V | 0.177 |
| C133W | 2.31 |
| C133S | 1.44 |
| C133H | 2.5 |
| C133L | 1.89 |

| Variant | THAP1 transcriptional activity |
| --- | --- |
| C133F | 0.613 |
| T165N | 1.38 |
| V139Q | 0.576 |
| V139R | 0.938 |
| P47C | 0.229 |
| P47L | 0.242 |
| P47N | 0.138 |
| H135E | 0.396 |
| H135M | 0.0946 |
| V184D | 1.11 |
| V184Y | 0.826 |
| L123T | 1.44 |
| L123K | 0.809 |
| L123P | 1.05 |
| L177V | 0.404 |
| P30R | 0.396 |
| P30K | 0.428 |
| P30I | 0.278 |
| K161T | 0.505 |
| Y205N | 0.989 |
| Y205P | 0.805 |
| Y205M | 1.5 |
